{"source": "a protein production outcome set (Wang et al. 2014)", "test": "label from the status in PepcDB records"}
{"sequence": "VVFFRHLVSDDGSVRHTGDNLVGGVGQGGDDEAILVDLQRVPVHIDQIVFTVNSFTGQTFQEVQNAFCRLVDETNGQELARYTLAGGGAFTAQIMAKVHRAGQGWSMTAIGTPANGRTFQDLMPAILPVL", "values": [{"measurement": "protein production", "result": "failed"}]}
{"sequence": "MWESKFVKEGLTFDDVLLVPAKSDVLPREVSVKTVLSESLQLNIPLISAGMDTVTEADMAIAMARQGGLGIIHKNMSIEQQAEQVDKVKRSESGVISDPFFLTPEHQVYDAEHLMGKYRISGVPVVNNLDERKLVGIITNRDMRFIQDYSIKISDVMTKEQLITAPVGTTLSEAEKILQKYKIEKLPLVDNNGVLQGLITIKDIEKVIEFPNSAKDKQGRLLVGAAVGVTADAMTRIDALVKASVDAIVLDTAHGHSQGVIDKVKEVRAKYPSLNIIAGNVATAEATKALIEAGANVVKVGIGPGSICTTRVVAGVGVPQLTAVYDCATEARKHGIPVIADGGIKYSGDMVKALAAGAHVVMLGSMFAGVAESPGETEIYQGRQFKVYRGMGSVGAMEKGSKDRYFQEGNKKLVPEGIEGRVPYKGPLADTVHQLVGGLRAGMGYCGAQDLEFLRENAQFIRMSGAGLLESHPHHVQITKEAPNYSL", "values": [{"measurement": "protein production", "result": "not failed"}]}
{"sequence": "MKVSVEIITGTFIDTDVSEDATVKQMKEKIAVEVKLPVTRLILVIGDEETRRLVMEDEDDMMLRDLGVGEDSHIYLFFKHPDLVSKEERSKGEDDDDPMEEVSSEAESGRGNEEEVEKAKIDGEEEDQAMKDEEEDRDVKVEEDEEEKEKEKDGEAKYVKEEAREVEEADNKQEN", "values": [{"measurement": "protein production", "result": "failed"}]}
{"sequence": "MPKSADQGGSPASASHEALRHILDAGASMGGLQGLDEAQQQALYAIGHGAYEQGRYADALKMFCLLVACDPLEARYLLALGAAAQELGLYEHALQQYAAAAALQLDSPRPLLHGAECLYALGRRRDALDTLDMVLELCGSPERAALRERAELLRRSYARAD", "values": [{"measurement": "protein production", "result": "failed"}]}
{"sequence": "MGYPPPTRRLGDKKRYHYSNNPNRRHPSAVYSKNSFPKSSNNGFVSSPTADNSTNPSVTPSTASVPLPTAAPGSTFGIEAPRPSRYDPSSVSRPSSSSYSSTRKIGSRYNPDVERSSSTTSSTPESMNTSTITHTNTDIGNSRYSRKTMSRYNPQSTSSTNVTHFPSALSNAPPFYVANGSSRRPRSMDDYSPDVTNKLETNNVSSVNNNSPHSYYSRSNKWRSIGTPSRPPFDNHVGNMTTTSNTNSIHQREPFWKANSTTILKSTHSQSSPSLHTKKFHDANKLDKPEASVKVETPSKDETKAISYHDNNFPPRKSVSKPNAPLEPDNIKVGEEDALGKKEVHKSGREIAKEHPTPVKMKEHDELEARAKKVSKINIDGKQDEIWTTAKTVASAVEVSKESQKELTRSVERKESPEIRDYERAYDPKALKTDVTKLTVDNDNKSYEEPLEKVEGCIFPLPKAETRLWELKNQKRNKIISEQKYLLKKAIRNFSEYPFYAQNKLIHQQATGLILTKIISKIKKEEHLKKINLKHDYFDLQKKYEKECEILTKLSENLRKEEIENKRKEHELMEQKRREEGIETEKEKSLRHPSSSSSSRRRNRADFVDDAEMENVLLQIDPNYKHYQAAATIPPLILDPIRKHSYKFCDVNNLVTDKKLWASRILKDASDNFTDHEHSLFLEGYLIHPKKFGKISHYMGGLRSPEECVLHYYRTKKTVNYKQLLIDKNKKRKMSAAAKRRKRKERSNDEEVEVDESKEESTNTIEKEEKSENNAEENVQPVLVQGSEVKGDPLGTPEKVENMIEQRGEEFAGELENAERVNDLKRAHDEVGEESNKSSVIETNNGVQIMDPKGAVQNGYYPEETKELDFSLENALQRKKHKSAPEHKTSYWSVRESQLFPELLKEFGSQWSLISEKLGTKSTTMVRNYYQRNAARNGWKLLVDETDLKRDGTSSESVQQSQILIQPERPNINAYSNIPPQQRPALGYFVGQPTHGHNTSISSIDGSIRPFGPDFHRDTFSKISAPLTTLPPPRLPSIQFPRSEMAEPTVTDLRNRPLDHIDTLADAASSVTNNQNFSNERNAIDIGRKSTTISNLLNNSDRSMKSSFQSASRHEAQLEDTPSMNNIVVQEIKPNITTPRSSSISALLNPVNGNGQSNPDGRPLLPFQHAISQGTPTFPLPAPRTSPISRAPPKFNFSNDPLAALAAVASAPDAMSSFLSKKENNN", "values": [{"measurement": "protein production", "result": "failed"}]}
{"sequence": "MDGTEIAVSPRSLHSELMCPICLDMLKNTMTTKECLHRFCSDCIVTALRSGNKECPTCRKKLVSKRSLRPDPNFDALISKIYPSREEYEAHQDRVLIRLSRLHNQQALSSSIEEGLRMQAMHRAQRVRRPIPGSDQTTTMSGGEGEPGEGEGDGEDVSSDSAPDSAPGPAPKRPRGGGAGGSSVGTGGGGTGGVGGGAGSEDSGDRGGTLGGGTLGPPSPPGAPSPPEPGGEIELVFRPHPLLVEKGEYCQTRYVKTTGNATVDHLSKYLALRIALERRQQQEAGEPGGPGGGASDTGGPDGCGGEGGGAGGGDGPEEPALPSLEGVSEKQYTIYIAPGGGAFTTLNGSLTLELVNEKFWKVSRPLELCYAPTKDPK", "values": [{"measurement": "protein production", "result": "failed"}]}
{"sequence": "MSLDVLTNFAQIQSFTALAIGIMIGLAALGAGLGLAIMAGKFLESAARQPELIPLLQVRMFIAAGLIDAAFIISVAVGLLLAFANPLSSTLLVAVSKALAG", "values": [{"measurement": "protein production", "result": "failed"}]}
{"sequence": "MKRFIVGIDLGTSNTVVAYVEAGGDAIRVFDVDQLVAPGEVGARPLLPSARYHPAPGEFAPGELQLPWRDAEAGDAADAGDAPPAVIGTLARTLGAQVPGRLVTSAKSWLSHASVDRLAPILPWGAADAGGKVSPVAASASYLAHVRAAWNRRFPDAPLEQQDVVLTVPASFDDGARSLTLEAARLAKLPALRLLEEPQAAFYDWLFHHRDSLREELARTRLVLVCDVGGGTTDLTLIKVHAEDGEPQLTRIGVGDHLMLGGDNMDLALARVAEARLARDGGARLSAASLSQLVERCRAAKERLLDANPPDSVGVTLLGAGARLVGGARKTELGRAEVEQIVVDGFFPAGGPDDLPRRSRAALVEFGLPYAADAAVTRHVAAFLHRLAAQSRDALGAAGASDRALPVPDTLLLNGGVFRSRALAERVAGVLGDWRGQPLHVLRNDHPDVAVARGAVAYGLARAGRAPRIGGGSPRSYFLVVDDGAHASRGVCVLPRGTAEGHDVRLDDRVFALRLGHPVRFHLASTVADHAWRAGELADLGAGGFVRLPPVATVVRRQDAGGASERLVKLTTSLTEVGTLDMRCIATDDSSQRWQLEFQLRREPAGGGDAADASRHPSLDEAIELIDRSFGARLANVDPKEVRRLRGQLEQLLGARDAWDIALLRELFGALWARAGRRRRSADHERVWLNLAGYCVRPGFGHPLDDWRVAQLWTLFDDGIQYVNDAQVWSEWWTLWRRAAGGLDDDAQREALDAMAWLQEAARAKRPKLPFDAAKIGDMDIVRLSASLERVPVERKIALGEDLLARLRRPAENHQCWWAIGRIGARRPLYGSAHGVVPPDVAGRWLDAILAVDWKKVEPAAFAAAQIARMTGDRSSDVAADVRERVVRRLAAMNASDAWVRMVSEVVALDSADTGRAFGESLPAGLKLVAD", "values": [{"measurement": "protein production", "result": "failed"}]}
{"sequence": "MSDLQKLQRFSTCDISDGLLNVYNIPTGGYFPNLTAISPPQNSSIVGTAYTVLFAPIDDPRPAVNYIDSVPPNSILVLALEPHLQSQFHPFIKITQAMYGGLMSTRAQYLKSNGTVVFGRIRDVDEHRTLNHPVFAYGVGSCAPKAVVKAVGTNVQLKILTSDGVTQTICPGDYIAGDNNGIVRIPVQETDISKLVTYIEKSIEVDLLVSEDIKNGIPAKQAQNDRRSVLKKYI", "values": [{"measurement": "protein production", "result": "not failed"}]}
{"sequence": "MNQHSFSLDDYYKSLINLDGMNDYYRYFIGLNGIIFPLLLIMSYPSVINLATKASFLIMLVGACCVLIDNWNRKSIAYRLYVELYENEYLANSDYKAGKVFVNLIFYVVSIYLISGVFGVL", "values": [{"measurement": "protein production", "result": "failed"}]}
{"sequence": "MGRLHCTEDPVPEAVGGDMQQLNQLGAQQFSALTEVLFHFLTEQKEVERFLAQLSEFATTNQISLGSLRSIVKSLLLVPNGALKKSLTAKQVQADFITLGLSEEKATYFSEKWKQNTPTLARWAIGQTLMINQLIDMEWKFGVTSGSSELEKVGSIFLQLKLVVKKGNQTKNVYIELTLPQFYSFLHEMERVRTSMECFC", "values": [{"measurement": "protein production", "result": "failed"}]}
{"sequence": "MGHHHHHHSHMGKITFYEDRAFQGRSYETTTDCPNLQPYFSRCNSIRVESGCWMLYERPNYQGQQYLLRRGEYPDYQQWMGLSDSIRSCCLIPQTVSHRLRLYEREDHKGLMMELSEDCPSIQDRFHLSEIRSLHVLEGCWVLYELPNYRGRQYLLRPQEYRRCQDWGAMDAKAGSLRRVVDLY", "values": [{"measurement": "protein production", "result": "not failed"}]}
{"sequence": "MFSMILSGLICGALLGFVMQRGRFCLTGGFRDMYIVKNNRMFYALLIAISVQSVGVFALIQAGLLTYEAGAFPWLGTVIGGYIFGLGIVLAGGCATGTWYRAGEGLIGSWIALFTYMVMSAVMRSPHASGLNQTLQHYSTEHNSIAETFNLSVWPLVAVLLVITLWVVMKELKKPKLKVATLPPRRTGIAHILFEKRWHPFVTAVLIGLIALLAWPLSEATGRMFGLGITSPTANILQFLVAGDMKYINWGVFLVLGIFVGSFIAAKASREFRVRAADAQTTLRSGLGGVLMGFGASIAGGCSIGNGLVMTAMMTWQGWIGLVFMILGVWTASWLVYVRPQRKARLATAAAN", "values": [{"measurement": "protein production", "result": "failed"}]}
{"sequence": "MGSIEEVLLEERLIGYLDPGAEKVLARINRPSKIVSTSSCTGRITLIEGEAHWLRNGARVAYKTHHPISRSEVERVLRRGFTNLWLKVTGPILHLRVEGWQCAKSLLEAARRNGFKHSGVISIAEDSRLVIEIMSSQSMSVPLVMEGARIVGDDALDMLIEKANTILVESRIGLDTFSREVEELVECF", "values": [{"measurement": "protein production", "result": "not failed"}]}
{"sequence": "TIATSGKLNWGIRESFNNYTNGASKVEDGATLISTNNFEFKLEKATYDAAKERTEAQFRGKIVYLKYCDDMKTFTNCQLDLTIKDPKIVISNEENYVEAVVDSKQYPSGEWYKSNGPVKIANLYPGSATVDSKDNSTEWTNVVSALANPGGVKMFSEFYGENEGLAPLSFSYDG", "values": [{"measurement": "protein production", "result": "failed"}]}
{"sequence": "MTDPVFFAPSRRYTAAEVANLTGSVLVDSGQSDVSIEALAPASEGGANALVFVDGRRNSALMPSLRAAAVLCPAEFANKAPSSVAVLIHPRPQQAFALVGRLLFPTAATPGPMTSETGVSAHAHIDPTAHVEAGAIIEAGVVIGPGVSIGSGTVIAPNAVIGQSCQIGRDGYVGPGASIQYALIGNRVIIHGGARIGQDGFGFVGGAKGPERVPQIGRVVIQDDVEIGSNSTVDRGAMSDTIIGQGTKIDNLVQIAHNVRIGRNCIVAGLSGISGSVVVGDNVTMGGGVGLADHLTIGSGAKLAARSGFMSNVPAGEIWGGYPAQPMAEAMREIAMLRTMARARKQGKDNG", "values": [{"measurement": "protein production", "result": "failed"}]}
{"sequence": "MSHKISEYFANDPPSFFDELASKPKGNNLSTEGSSSSASSTSSAPNMMSNTFVGFFQPPEYVETPEAGEDSIKVGDDVRNLWELPRENEPGKLIMPGIHLQTDLADPISVAVTQHLGEAELSYRKILRVDDVTQDERGLRTLIHAGCYRTAVNLTGRLLTIYGQGYGRSGQPAKHSPHSLQLWFTRLALLAKLGEFELLNAEAEPFGQLTSPDVFYDFYPEMYNGKSGSIACFSFRLLLAELPIYLGKPHVALDRLSELHVTTREIKEHYLSLHNKAAEEFWQRRCERVLHSIINCGLMMKKFSMIDDIMEGTLLKRSNLSKEDRRSLYSAWGRIYLQIGDIFGAEQKIAVSRRLREINSAPDLRDLVDKGLIAVAKNDFPEAYVIFQKALHLDTGNTMILNNMGVCLLYAGKLKDAINLYERAINLNPQKSLNESLLVNLSTLYELESNNSKAKKYNLLRLINRYKPDLNISIEICLKLQTIN", "values": [{"measurement": "protein production", "result": "failed"}]}
{"sequence": "MSTQFSDKFIQNLKPEAKKYYIRESRGFAIVVHPSGIKNPKGTKTFLYIYTINGKRKELKLGNYPEVTLKDARIKHGEAYARLVNGEDPVTPPVIKAEPQDENLTFGHFTELYLQWSKDNHSPKWHNTIKCALNKDALPVWEYTLIASIKRRDAIAFLENVARRGIQVINLHKATSSVFDYALEREYIESNPMAGLKAKTIPALKPKARERFLSDSEIKHVWKAIDEGPGYDETKRALKLIMVTAQRPGEVAAMHRREIQTGVGKPRCKICKRCGWWTIPAERMKNGEEHRIYLTPTALELIGDAEGYIFPSPQDGQPINRNSLSQLVSRERNNKKPNGEMYPPYYGLPEWTPHDLRRTARTLLARVGVPEEHAEEVLSHKKEGLVDRYNRHDYMEEKKEALIKLEAELMKLSI", "values": [{"measurement": "protein production", "result": "failed"}]}
